For the test, the target named is GST-syntaxin-1 (UniProt P32851). Kind of test: pull-down.
Chain of GST-syntaxin-1 (P32851 1-265): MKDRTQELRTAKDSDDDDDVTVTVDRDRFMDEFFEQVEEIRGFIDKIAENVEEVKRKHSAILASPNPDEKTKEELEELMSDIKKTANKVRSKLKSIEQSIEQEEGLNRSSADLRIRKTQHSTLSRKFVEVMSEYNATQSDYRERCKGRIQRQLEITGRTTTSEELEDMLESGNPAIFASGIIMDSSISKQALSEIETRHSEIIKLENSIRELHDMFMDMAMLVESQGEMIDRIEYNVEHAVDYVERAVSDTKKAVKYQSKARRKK

Take “MBP-tomosyn (nonphosphorylated form) (natural protein)”: the Kd came out at 60 nM and the percent of the total input bound was determined as 60%.

Consider “MBP-tomosyn phosphorylated by PKA (natural protein)”, for which the Kd came out at 330 nM and the percent of the total input bound amounted to 20%.

In turn, MBP-tomosyn-S724D (natural protein) returned an amount bound in comparison with MBP-tomosyn of 35%.

Broadly, the Kd is the equilibrium constant for the complex coming apart.

The values are drawn from PMC2171531.
